Data published in IntAct's records for PubMed 19270079.

target: pcd15_mouse Pcdh15 (UniProt Q99PJ1)
Sequence (Q99PJ1 whole entry): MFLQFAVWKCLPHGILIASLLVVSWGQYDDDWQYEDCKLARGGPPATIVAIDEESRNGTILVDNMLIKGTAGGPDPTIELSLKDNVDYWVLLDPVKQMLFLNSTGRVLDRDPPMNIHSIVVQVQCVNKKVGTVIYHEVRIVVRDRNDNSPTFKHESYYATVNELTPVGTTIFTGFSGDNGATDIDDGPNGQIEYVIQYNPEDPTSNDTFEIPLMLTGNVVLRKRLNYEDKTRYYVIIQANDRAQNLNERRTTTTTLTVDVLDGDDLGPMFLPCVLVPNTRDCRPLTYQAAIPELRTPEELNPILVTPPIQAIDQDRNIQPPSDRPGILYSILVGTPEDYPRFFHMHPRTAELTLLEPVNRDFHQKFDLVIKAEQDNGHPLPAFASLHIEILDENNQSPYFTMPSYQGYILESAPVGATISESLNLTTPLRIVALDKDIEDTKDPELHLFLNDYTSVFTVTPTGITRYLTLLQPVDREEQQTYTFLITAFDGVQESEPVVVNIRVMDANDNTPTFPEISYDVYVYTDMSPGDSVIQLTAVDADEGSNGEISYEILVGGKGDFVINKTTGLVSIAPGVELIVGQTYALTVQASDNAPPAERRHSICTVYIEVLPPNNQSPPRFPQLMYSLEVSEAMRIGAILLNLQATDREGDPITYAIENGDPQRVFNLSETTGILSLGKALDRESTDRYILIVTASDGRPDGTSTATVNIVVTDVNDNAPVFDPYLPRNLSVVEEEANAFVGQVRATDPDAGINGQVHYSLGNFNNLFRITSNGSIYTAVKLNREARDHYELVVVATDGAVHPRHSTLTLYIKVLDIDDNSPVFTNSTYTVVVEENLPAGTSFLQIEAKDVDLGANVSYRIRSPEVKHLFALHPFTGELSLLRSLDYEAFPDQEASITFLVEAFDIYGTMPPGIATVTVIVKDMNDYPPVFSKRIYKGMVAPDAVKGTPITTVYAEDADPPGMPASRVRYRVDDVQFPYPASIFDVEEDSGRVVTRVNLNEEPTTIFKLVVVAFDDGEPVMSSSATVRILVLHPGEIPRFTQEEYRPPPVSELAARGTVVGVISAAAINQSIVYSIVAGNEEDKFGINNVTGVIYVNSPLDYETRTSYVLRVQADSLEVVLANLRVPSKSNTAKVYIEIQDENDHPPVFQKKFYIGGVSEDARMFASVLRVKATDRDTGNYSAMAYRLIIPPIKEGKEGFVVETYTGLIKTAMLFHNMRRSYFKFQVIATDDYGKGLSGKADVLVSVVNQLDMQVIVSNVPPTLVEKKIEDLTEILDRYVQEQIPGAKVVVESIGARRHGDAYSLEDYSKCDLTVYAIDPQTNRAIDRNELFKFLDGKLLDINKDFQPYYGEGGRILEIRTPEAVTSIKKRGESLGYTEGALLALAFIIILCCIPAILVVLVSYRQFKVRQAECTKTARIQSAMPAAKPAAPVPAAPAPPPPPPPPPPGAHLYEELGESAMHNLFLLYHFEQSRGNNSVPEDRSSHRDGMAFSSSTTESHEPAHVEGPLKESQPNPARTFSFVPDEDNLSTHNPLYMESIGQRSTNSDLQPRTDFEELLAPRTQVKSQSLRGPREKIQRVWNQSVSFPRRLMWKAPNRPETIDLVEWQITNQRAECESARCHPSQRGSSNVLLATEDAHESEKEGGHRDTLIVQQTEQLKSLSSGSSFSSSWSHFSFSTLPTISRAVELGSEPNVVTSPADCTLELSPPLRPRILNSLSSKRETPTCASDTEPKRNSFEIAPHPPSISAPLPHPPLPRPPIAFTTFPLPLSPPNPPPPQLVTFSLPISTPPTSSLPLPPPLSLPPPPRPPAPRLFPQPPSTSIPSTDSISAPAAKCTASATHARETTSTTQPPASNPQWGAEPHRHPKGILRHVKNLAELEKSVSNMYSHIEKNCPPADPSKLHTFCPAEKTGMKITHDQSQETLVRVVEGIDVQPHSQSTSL

Substance	effect of a mutation on the interaction
Cadherin-23 (Mus musculus), Q99PF4-1 D124G	decreasing interaction
Cadherin-23 (Mus musculus), Q99PF4-1 R1060W	decreasing interaction
Cadherin-23 (Mus musculus), Q99PF4-1 E737V	decreasing interaction
